Measured values as given in the RNAGym collection of RNA variant scans (doi:10.1093/molbev/msab373).

B1: Azoarcus group I ribozyme (parent)
chain: GUGCCUUGCGCCGGGAAACCACGCAAGGGAUGGUGUCAAAUUCGGCGAAACCUAAGCGCCCGCCCGGGCGUAUGGCAACGCCGAGCCAAGCUUCGGCGCCUGCGCCGAUGAAGGUGUAGAGACUAGACGGCACCCACCUAAGGCAAACGCUAUGGUGAAGGCAUAGUCCAGGGAGUGGCGAAAGUCACACAAACCGG

Variants of: B1
Assay: reverse-splicing fitness (ratio to wild type); higher = more active; in vitro selection; Mg2+ level not given
Method in brief: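 An in vitro group I ribozyme library with randomized positions was T7-transcribed and gel-purified. In triplicate, 10 pmol RNA in EPPS pH 7.5 was reacted with 50 pmoles of a 30-nt RNA substrate for 1 h at 37 °C across several added MgCl2 levels (1–48 mM), then stopped with EDTA. Products were reverse transcribed from a substrate-complementary primer, PCR-amplified and sequenced (HiSeq 4000). Fitness is a variant's read proportion after selection over that before, normalised to wild type.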

Row | Variant | reverse-splicing fitness
1 | C82A A111U A120U C150U C169G | 0.00623
2 | C82A A111U A145C C169G U176A | 0.0281
3 | C82A A111U A145C C169G U176G | 0.00654
4 | C82A A111U A145C C169G U176C | 0.0185
5 | C82A A111U A120U C150G C169G U176C | 0.00289
6 | C82A A111U A120U C150G C169G U176G | 0.00289
7 | C82A A111U A120U C150G C169G U176A | 0.00475
8 | C82A A111U A120U A145C C150U C169U U176G | 0.00236
9 | C82A A111U A120U A145C C150U C169U U176A | 0.00291
10 | C82A A111U A120U A145C C150U C169U U176C | 0.00282
11 | C82A A111U A145C C169U U176C | 0.0102
12 | C82A A111U A145C C169U U176A | 0.016
13 | C82A A111U A145C C169U U176G | 0.00582
14 | C82A A111U A120U A145G C150U C169A U176G | 0.00259
15 | C82A A111U A120U A145G C150U C169A U176C | 0.00423
16 | C82A A111U A120U A145G C150U C169A U176A | 0.00815
17 | C82A A111U A120U A145U C150U C169A U176G | 0.00243
18 | C82A A111U A120U A145U C150U C169A U176C | 0.00305
19 | C82A A111U A120U A145U C150U C169A U176A | 0.00366
20 | C82A A111U A120U A145C C150U C169G U176G | 0.00248
21 | C82A A111U A120U A145C C150U C169G U176A | 0.00366

Row | Variant | reverse-splicing fitness
22 | C82A A111U A120U A145C C150U C169G U176C | 0.00274
23 | C82A A111U A120U A145U C150A C169U | 0.00298
24 | C82A A111U A120U A145U C150A C169A | 0.00286
25 | C82A A111U A120U A145U C150A C169G | 0.00274
26 | C82A A111U A120U A145G C150A C169U U176G | 0.00326
27 | C82A A111U A120U A145G C150A C169U U176A | 0.00626
28 | C82A A111U A120U A145G C150A C169U U176C | 0.00543
29 | C82A A111U A120U C150U | 0.016
30 | C82A A111U A120U C150G | 0.00757
31 | C82A A111U A120U C150A | 0.00876
32 | C82A A111U A145C C150A C169A U176G | 0.00855
33 | C82A A111U A145C C150A C169A U176C | 0.00757
34 | C82A A111U A145C C150A C169A U176A | 0.0149
35 | C82A A111U A120U A145C C150U C169A U176C | 0.00232
36 | C82A A111U A120U A145C C150U C169A U176A | 0.00281
37 | C82A A111U A120U A145C C150U C169A U176G | 0.00224
38 | C82A A111U A120U C169G U176A | 0.00417
39 | C82A A111U A120U C169G U176C | 0.00453
40 | C82A A111U A120U C169G U176G | 0.00236
41 | C82A A111U A120U A145U C150U U176A | 0.00828
42 | C82A A111U A120U A145U C150U U176C | 0.00878

Row | Variant | reverse-splicing fitness
43 | C82A A111U A120U A145U C150U U176G | 0.00385
44 | C82A A111U A120U A145U C150U C169G U176A | 0.00409
45 | C82A A111U A120U A145U C150U C169G U176G | 0.00224
46 | C82A A111U A120U A145U C150U C169G U176C | 0.00351
47 | C82A A111U A120U C150A C169U U176A | 0.00587
48 | C82A A111U A120U C150A C169U U176C | 0.00489
49 | C82A A111U A120U C150A C169U U176G | 0.00224
50 | C82A A111U A120U A145U C169A U176C | 0.00197
51 | C82A A111U A120U A145U C169A U176G | 0.00222
52 | C82A A111U A120U A145U C169A U176A | 0.00283
53 | C82A A111U A145C C169A U176A | 0.0109
54 | C82A A111U A145C C169A U176G | 0.00702
55 | C82A A111U A145C C169A U176C | 0.00816
56 | C82A A111U A120U A145G C150A | 0.00899
57 | C82A A111U A120U A145G C150G | 0.00842
58 | C82A A111U A120U A145G C150U | 0.0195
59 | C82A A111U A120U C150U U176A | 0.00753
60 | C82A A111U A120U C150U U176C | 0.00953
61 | C82A A111U A120U C150U U176G | 0.00345
62 | C82A A111U A120U A145U C150A U176G | 0.00236
63 | C82A A111U A120U A145U C150A U176A | 0.00486

Row | Variant | reverse-splicing fitness
64 | C82A A111U A120U A145U C150A U176C | 0.00625
65 | C82A A111U A120U C169U U176C | 0.00461
66 | C82A A111U A120U C169U U176A | 0.00519
67 | C82A A111U A120U C169U U176G | 0.00228
68 | C82A A111U A120U A145C C169G U176C | 0.00232
69 | C82A A111U A120U A145C C169G U176A | 0.00281
70 | C82A A111U A120U A145C C169G U176G | 0.00198
71 | C82A A111U A145G C150U C169U U176A | 0.0147
72 | C82A A111U A145G C150U C169U U176C | 0.0148
73 | C82A A111U A145G C150U C169U U176G | 0.00683
74 | C82A A111U A145G C150G C169A | 0.0097
75 | C82A A111U A145G C150G C169G | 0.00774
76 | C82A A111U A145G C150G C169U | 0.0101
77 | C82A A111U A120U A145G C150G C169U | 0.00854
78 | C82A A111U A120U A145G C150G C169G | 0.00757
79 | C82A A111U A120U A145G C150G C169A | 0.00923
80 | C82A A111U A145C | 0.28
81 | C82A A111U A145G | 0.313
82 | C82A A111U A120U A145C U176G | 0.00274
83 | C82A A111U A120U A145C U176A | 0.00613
